Test [1] concerns the target human FcγRIIIa-Val158, soluble ectodomain (human). Put plainly: SPR; FcγRIIIa ectodomains immobilised on Series S CM5 chips by amine coupling (Phe158 560 RU, Val158 260 RU); Biacore T200; antibody injected (Rituxan 21,870-30 nM, recombinant mAb 810-3.333 nM, threefold dilutions); blank surface and buffer subtracted; 1:1 Langmuir binding model. (In general: Surface plasmon resonance follows binding to a sensor surface in real time, without labels.)

The target of test [2] is human FcγRIIIa-Phe158, soluble ectodomain (human) (UniProt P08637). Described as above.
Chain of UniProt P08637 (P08637 17-208): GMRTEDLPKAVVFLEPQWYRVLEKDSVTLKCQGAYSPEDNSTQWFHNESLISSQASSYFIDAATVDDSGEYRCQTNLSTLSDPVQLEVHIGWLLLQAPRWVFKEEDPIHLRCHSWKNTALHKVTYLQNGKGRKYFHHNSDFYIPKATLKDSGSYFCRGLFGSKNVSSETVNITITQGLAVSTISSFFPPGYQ

Consider Rituxan (antibody), for which, in test [1], the equilibrium dissociation constant (Kd) was determined as 0.94 µM, the koff stood at 0.043 s⁻¹ and the on-rate (kon) was determined as 46000 M⁻¹ s⁻¹. In test [2], the equilibrium dissociation constant (Kd) is 6.8 µM, the off-rate (koff) was 0.17 s⁻¹ and the on-rate constant (kon) worked out at 25000 M⁻¹ s⁻¹.

The Kd is a measure of binding affinity in units of concentration. Usually koff stands for a measure of how fast the partners let go of each other. The term kon denotes a measure of how fast the partners come together.
